Measured values taken from patent US20240018252A1.

Biological target: human CD3 (huCD3ed) (human) (UniProt P07766)
Assay: Biacore SPR, antibody as ligand, hCD3ed 80 nM-0.64 nM, kinetic fit

Sequence of human CD3 (huCD3ed) (human) (P07766 23-126, chain 1 of 2): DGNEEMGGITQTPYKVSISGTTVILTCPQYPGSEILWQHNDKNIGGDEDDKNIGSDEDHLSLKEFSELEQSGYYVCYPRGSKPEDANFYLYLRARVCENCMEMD
Sequence of human CD3 (huCD3ed) (human) (P04234 22-105, chain 2 of 2, further chain): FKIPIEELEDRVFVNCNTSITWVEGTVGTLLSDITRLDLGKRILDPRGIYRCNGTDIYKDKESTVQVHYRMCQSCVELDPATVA

Substance SP34 (antibody) has a Kd of 0.0107 µM and a t1/2 of 3.8 min.
